Data set [1] is described as follows: folding stability dG unfold from trypsin proteolysis; higher = more stable. An outline of the steps:
(§1)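 Designed mini-proteins (under 80 residues, no cysteine) in a PA-tagged cDNA display construct were digested with trypsin and chymotrypsin. Each protease was used at 11 concentrations (threefold dilutions) plus a no-protease condition, followed by sequencing. K50 was inferred by Bayesian fitting of sequencing counts, and unfolding free energy was derived against a sequence-predicted unfolded-state K50 and a shared folded-state K50, per protease or combined. Only designs with AlphaFold2 dimer inter-PAE above 15 were kept.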

Data set [2] in a line: folding stability dG unfold from chymotrypsin proteolysis; higher = more stable. An outline of the steps: as §1
The nature of data set [3]: folding stability dG unfold (combined trypsin and chymotrypsin); higher = more stable. An outline of the steps: as §1

± gives the half width of the 95% confidence interval. A value given as a limit tells only on which side of the number the result lay.

Turning to “MITPEEAIELAKEKAKELLEKAGPGTPSVVVEIKAEDGRVVKVEVDPVKKVINITVYDKGGKKVAEKIIEES [r1_370_JUSTAS]”, the “folding stability dG unfold” value in data set [1] stood at 2.06 ± 0.1 kcal/mol; in data set [2], 2.67 ± 0.099 kcal/mol; in data set [3], 2.38 ± 0.11 kcal/mol.

With “MKEITVTLPVPEEVLAAIRAGKPLPLEEIKERVKEEIAKRLGYKNVTIKSVKVEKLPDGSLVIKVKVEFLPS [r1_290_JUSTAS]”, the results for the “folding stability dG unfold” value in data set [1], in data set [2] and in data set [3] were 5.45 ± 0.43 kcal/mol, 3.58 ± 0.044 kcal/mol and 4.15 ± 0.087 kcal/mol, respectively.

Turning to “MKEYLIKIKITITDPNGKKREIEITVLVPAEELTEEQLKELLEKAKELAEKLKEKGYEVKVEVEIIPLEELS [r1_221_TrROS_Hall]”, the “folding stability dG unfold” value in data set [1] came to 3.83 ± 0.27 kcal/mol; in data set [2] it was 4.23 ± 0.21 kcal/mol; in data set [3], 4.25 ± 0.27 kcal/mol.

“MKIEIEIEREEDRVIVRIKIERKDGKEIELELEVPSLEEALEAIEKILASLPPEEVKIVEIEIYNADGEKIS [r1_169_TrROS_Hall]”: the entries for the “folding stability dG unfold” value in data set [1], in data set [2] and in data set [3] were 2.53 ± 0.14 kcal/mol, 1.85 ± 0.086 kcal/mol and 2.21 ± 0.2 kcal/mol, respectively.

For “MKIIDVVPTPDGLIVVIKVVFPNTEEAYVSASDLDKLIKEIFERFGVKPEYLKITDIKAFSPEELKEFLEES [r1_119_TrMRF]”, the results for the “folding stability dG unfold” value in data set [1], in data set [2] and in data set [3] were 2.37 ± 0.072 kcal/mol, 2.98 ± 0.031 kcal/mol and 2.78 ± 0.075 kcal/mol, respectively.

As for “MKKKVTISIKRKSEVKYTKFPNGEVVPVEDLGGLTVTIEVPESELEELLKKLDIPEDEIEEITVTITPEASS [r1_351_JUSTAS]”, the results for the “folding stability dG unfold” value in data set [1], in data set [2] and in data set [3] were 1.08 ± 0.18 kcal/mol, -0.175 ± 0.8 kcal/mol and 0.648 ± 0.42 kcal/mol, respectively.

For the sequence “MKLLKITITITVTRQFPTVPVTSTTTITLEYTTPPDDPAAIEEAKKTAEEIAKKLGATDVTVTTEEVVLESS [r1_346_JUSTAS]”, the figures for the “folding stability dG unfold” value in data set [1], in data set [2] and in data set [3] were 3.34 ± 0.11 kcal/mol, 4.08 ± 0.057 kcal/mol and 3.84 ± 0.11 kcal/mol, respectively.

On to “MKPIPAEEIRDLAQKLGLPLPPGQIQIKVRHNNKKKTFPIPAGDPITIDDIVENMQQQNPNIKDIEIVIHPS [r1_135_TrROS]”, for which the “folding stability dG unfold” value in data set [1] was -0.754 ± 0.53 kcal/mol; in data set [2], -0.389 ± 0.28 kcal/mol; in data set [3], under -1 kcal/mol.

“MKVEIVEVEYDEETKRVRVKLKVDGKLVEIEFDLESGKVTVRIYEDGEEIEIEAESVEDALEKAKELVKEKS [r1_177_TrROS_Hall]”: the results for the “folding stability dG unfold” value in data set [1], in data set [2] and in data set [3] were 2.02 ± 0.2 kcal/mol, 1.69 ± 0.12 kcal/mol and 1.93 ± 0.28 kcal/mol, respectively.

Take “MLVVEVPAEELSPEQVRERIRAALRAAREAGIRDARIVIVVEASEEQRERLRRELRELAEEEGLEVEIVERS [r1_387_TrROS_Hall]”: the “folding stability dG unfold” value was found to be 4.83 ± 0.17 kcal/mol in data set [1], 5.52 ± 0.2 kcal/mol in data set [2] and 5.34 ± 0.18 kcal/mol in data set [3].

Take “MMLIIKVKNKKTGKTETIKIDMSVEEIKNAIKELKKKNPNAKVTIIGVKTEEVRKALKEAGIEKIEVKPLPS [r1_114_TrROS_Hall]”: the figures for the “folding stability dG unfold” value in data set [1], in data set [2] and in data set [3] were 3.01 ± 0.23 kcal/mol, 3.5 ± 0.22 kcal/mol and 3.51 ± 0.31 kcal/mol, respectively.

Consider “MMYLIRVTVYDEETEEEVEEIEILIELSEEELKNMSEEEREKLLEEALKKAEELAKEYPNLKIEVEIVELPS [r1_115_TrROS_Hall]”, for which the figures for the “folding stability dG unfold” value in data set [1], in data set [2] and in data set [3] were 3.52 ± 0.13 kcal/mol, 4.01 ± 0.09 kcal/mol and 3.83 ± 0.14 kcal/mol, respectively.

“MNIKVTSVLPDGTVVVTAEAPLPDGSSIRVTAARRGKDSYVLVTVNVYPTKVVADIKEVAPVSPGSPEEGGS [r1_53_TrMRF]”: the figures for the “folding stability dG unfold” value in data set [1], in data set [2] and in data set [3] were 2.21 ± 0.085 kcal/mol, 3.3 ± 0.12 kcal/mol and 2.88 ± 0.12 kcal/mol, respectively.

For the sequence “MPARVEARRIPDEPRLEVVVDFPGYRVVVRVDEGGRVEVEVVWEENVGPEERAAAEEAAEAFAREVAEALGS [r1_468_TrMRF]”, the figures for the “folding stability dG unfold” value in data set [1], in data set [2] and in data set [3] were 0.401 ± 0.19 kcal/mol, 1.05 ± 0.039 kcal/mol and 0.839 ± 0.099 kcal/mol, respectively.

As to “MPLGLESERYPNGAPTIESVEVPEDGSVKITLYFPETGEKVEYTLPPNIPPGTEYEIDLPGPTGTGRLRLGS [r1_43_TrMRF]”, the “folding stability dG unfold” value is -0.204 ± 0.2 kcal/mol in data set [1], 1.65 ± 0.15 kcal/mol in data set [2] and 1.27 ± 0.2 kcal/mol in data set [3].

Consider “MPNLKPALLVIPMKVESIEEAEEKVLAFAEELAEAFPNIKKIEVEILEIDEENGIVIAKITVEAEDSALDAS [r1_52_TrMRF]”, for which the “folding stability dG unfold” value in data set [1] stood at 2.12 ± 0.1 kcal/mol; in data set [2] it was 2.34 ± 0.051 kcal/mol; in data set [3] it was 2.13 ± 0.19 kcal/mol.

With “MRIEIRVEKVEDGFYKVTIRLEETGETLELVVPKSLEEAKAAAEELLRELFPDVKVTEIRVERVPLPEEDLS [r1_80_TrROS_Hall]”, the “folding stability dG unfold” value in data set [1] amounted to 3.03 ± 0.077 kcal/mol; in data set [2] it was 2.77 ± 0.063 kcal/mol; in data set [3], 2.9 ± 0.07 kcal/mol.

On to “MRVVFEATYTDPEGVPVTETFVIPEEVLEEIEREGRPITREELVELAEEIIRDYTKEHDADVEFRFVEFEPS [r1_174_TrMRF]”, for which the “folding stability dG unfold” value is 1.91 ± 0.086 kcal/mol in data set [1], 2.52 ± 0.025 kcal/mol in data set [2] and 2.27 ± 0.1 kcal/mol in data set [3].

In the case of “MSEEELRELEERLAAPGPVEVRVEVEVREEEGDEPVFVFRVRYYRPEPGEELGEEEIVVPEEELEELLRELS [r1_415_TrMRF]”, the “folding stability dG unfold” value is 1.34 ± 0.065 kcal/mol in data set [1], 2.31 ± 0.086 kcal/mol in data set [2] and 1.93 ± 0.15 kcal/mol in data set [3].

Turning to “MTEEEVRAEAEARARALAEERGVEITAVDIDGEVEQVVETTTRPTPDGRPVTETTSKKIKTKVRATLRPPRS [r1_91_JUSTAS]”, the “folding stability dG unfold” value in data set [1] was -0.107 ± 0.27 kcal/mol; in data set [2] it was 1.39 ± 0.053 kcal/mol; in data set [3] it was 1.09 ± 0.14 kcal/mol.

Turning to “MTIVIDTPVPPEEAEALLRELAEELGYSPELMEVEERVFSEGEDGRPYVTLTVRLPGLGVTITLRLPPDAAS [r1_21_JUSTAS]”, the “folding stability dG unfold” value was 3.61 ± 0.11 kcal/mol in data set [1], 3.681 ± 0.02 kcal/mol in data set [2] and 3.66 ± 0.041 kcal/mol in data set [3].

With “MTPEERIEEIEAKARELLRELGLPPEVRLTVEAEVRPRPDGRLELRVRVTVEFPGPPGAIPPELLEALAEES [r1_98_TrMRF]”, the “folding stability dG unfold” value in data set [1] came to 2.7 ± 0.081 kcal/mol; in data set [2] it was 2.38 ± 0.086 kcal/mol; in data set [3], 2.53 ± 0.14 kcal/mol.

For “MTPTFTVTELPPDLLRVEYTDPVTGKRATFTLPVSPVGDGVRLSAEVDAEGLPEEVAAAIRDAALAALAAAS [r1_403_JUSTAS]”, the “folding stability dG unfold” value in data set [1] amounted to 1.48 ± 0.021 kcal/mol; in data set [2], 2.3 ± 0.023 kcal/mol; in data set [3] it was 2.06 ± 0.042 kcal/mol.

Regarding “MVELVEVTRENGLVTVTVANPIPGATLTVEVRDPEGKVLASSTSPSPTVTVTAEIPPDEDFSVTVTQTPPAS [r1_382_JUSTAS]”, the “folding stability dG unfold” value in data set [1] was 3.43 ± 0.14 kcal/mol; in data set [2], 3.99 ± 0.2 kcal/mol; in data set [3], over 6 kcal/mol.

As for “MYLVRIKIEYKTEDGEKVEKEITLLVEPSEEEAKEKAEELARKIAEELGLSEEEIKKIEVEVVKLGEELEES [r1_159_TrROS_Hall]”, the “folding stability dG unfold” value was determined as 4.05 ± 0.22 kcal/mol in data set [1], 4.37 ± 0.12 kcal/mol in data set [2] and 4.29 ± 0.15 kcal/mol in data set [3].

As for “MYTIEVEVSTEPNPNTTTVTVRITSDDGTPVPEEVVKEAAEKIKKSGYPIDELEVKPLPDGSVEVTLKYSSS [r1_408_JUSTAS]”, the “folding stability dG unfold” value in data set [1] amounted to 3.31 ± 0.17 kcal/mol; in data set [2], 4.05 ± 0.13 kcal/mol; in data set [3], 3.76 ± 0.11 kcal/mol.

The values above are taken from the supplement of paper PMC12764529.
